Measurements: patent publication US20190322720A1 (PRECISION BIOLOGICS, published 2019)

How the values were obtained:
[1] = molecular target: T1, MUC5AC truncation construct 1-136 (human, UniProt P98088 3212-4055); test: immunofluorescence, transfected 293T cells
T1 construct: also called 136 residue construct
T1 sequence: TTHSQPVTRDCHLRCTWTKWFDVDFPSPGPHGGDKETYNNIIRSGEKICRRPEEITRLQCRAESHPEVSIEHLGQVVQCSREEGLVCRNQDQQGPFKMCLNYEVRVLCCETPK
Experimental: (§1) Cells were transiently transfected with 2 μg of MUC5AC constructs of Table 8 with LIPOFECTAMINE®. Cells were grown for about 72 hours, fixed with about 4% PFA in PBS, washed with PBS, permeabilized with about 0.2% […] in PBS and washed with PBS. Cells were then blocked with about 1% BSA in PBS, and about 2 μg/ml NPC-1 antibody was added to sample wells and about 2 μg/ml of an Isotype control was added for 1 hour at room temp. Cells were washed with PBS and second anti human-FITC antibody (1:500) was added to all wells and to the second antibody control wells. Cells were washed and mounted on slides with DAPI hard mount. Cover slides were allowed to sit over night at about 4° C. Slides were visualized with a Nikon Eclipse Ti microscope with an Andor camera. At least 3 random fields were counted per transfection.
(§2) This strategy was used to identify an about 15 amino acid-region that contains a NPC-1 epitope: […] (SEQ ID NO: 37). […] This is a repetitive sequence that also has some changes in it which are also probable scaffold for the binding sites for the NPC-1C antibody. This repetitive sequence and variations can be found in the longer deletions of MUC5AC and MUC5AC itself.

[2] = molecular target: T2, MUC5AC truncation construct 1-85 (human, UniProt P98088 1734-1794); test: immunofluorescence, transfected 293T cells
T2 construct: also called 85 residue construct
T2 chain: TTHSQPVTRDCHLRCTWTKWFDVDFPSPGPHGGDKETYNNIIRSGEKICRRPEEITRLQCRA
Experimental: as §1, §2

binding result [1]: no binding (tested: about 2 µg/ml)
binding result [2]: no binding (tested: about 2 µg/ml)
B1: NPC-1C (antibody, V domains shown)
VH: QVQLKESGPDLVAPSQSLSITCTVSGFSLSKFGVNWVRQPPGKGLEWLGVIWGDGSTSYNSGLISRLSISKENSKSQVFLKLNSLQADDTATYYCVKPGGDYWGHGTSVTVSS
VL: QVVLTQSPVIMSASPGEKVTMTCSASSSISYMYWYQQKPGTSPKRWIYDTSKLASGVPARFSGSGSGTSYSLTISNMEAGDAATYYCHQRDSYPWTFGGGTNLEIK
notes: Chimeric antibody with human IgG1 constant regions, made in CHO cells; used plain, biotin- or FITC-labelled, or coupled to beads; also called NEO-101; ensituximab
